In patent US20100280227A1 (Genentech, published 2010):

What was measured:
[1] = target: T1, human BR3 extracellular domain (human, UniProt Q96RJ3 1-61); experiment: SPR, BR3 ECD on chip;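 note: Anti-BR3 antibodies passed over the chip at high flow in PBS with 0.05% polysorbate 20, on and off rates fitted together globally to a 1:1 binding model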
T1 construct: biotinylated where used as tracer; also called hBR3-ECD; BR3-ECD

[2] = target: T2, human BR3 expressed on cells (human, UniProt Q96RJ3 1-184); experiment: BJAB cells, competition with biotin-BAFF
T2 construct: whole, on cells; also called BR3 on BJAB cells; cell surface BR3
Protocol: The diluted samples were added to the pelleted BJAB cells in 96 well plates as described above. After 45 min incubation on ice, the cells were washed twice with 200 μl cold assay buffer, and streptavidin-HRP (AMDEX, Amersham Biosciences, Piscataway, N.J.) diluted 1/5,000 in assay buffer was added (100 μl/well). The plates were incubated for a final 45 min on ice. After washing twice with cold assay buffer, color was developed using TMB, the reaction was stopped with H₃PO₄, and the plates were read as described above.

[3] = target: T3, variant human BR3-Fc fusion; experiment: SPR, vBR3-Fc on chip;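 note: Anti-BR3 antibodies passed over chip-bound BR3-Fc in PBS with 0.05% polysorbate 20, on and off rates fitted together globally to a 1:1 binding model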
T3 construct: produced in CHO cells; also called vBR3-Fc; vhBR3-Fc

[4] = target: T4, mouse BR3 extracellular domain (mouse, UniProt Q9D8D0 1-64); experiment: phage competition ELISA
T4 construct: also called mBR3-ECD; mBR-ECD
T4 sequence: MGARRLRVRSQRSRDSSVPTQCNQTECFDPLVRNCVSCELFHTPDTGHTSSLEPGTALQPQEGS

[5] = target: T1, human BR3 extracellular domain; experiment: phage competition ELISA
[6] = target: T2, human BR3 expressed on cells; experiment: BJAB cells, direct binding
Protocol: Direct and competitive binding assays were performed as follows. For the direct binding assay, IgG antibody samples were serially diluted in cold assay buffer to concentrations ranging between 300-0.02 nM. Samples (100 μl) were added to the pelleted cells, and the plates were incubated for 45 min on ice. An additional 100 μl assay buffer was then added to each well, and the plates were centrifuged at 1200 rpm for 5 min at 4° C. After carefully aspirating the supernatant, the cells were washed two additional times with 200 μl assay buffer. An anti-mouse IgG Fc-HRP or goat anti-human IgG Fc-HRP, as appropriate, was diluted 1/10,000 in cold assay buffer was added (100 μl/well, Jackson ImmunoResearch, West Grove, Pa.), and the plates were incubated on ice for 45 min. Following two washes with 200 μl cold assay buffer, tetramethyl benzidine (TMB, Kirkegaard & Perry Laboratories, Gaithersburg, Md.) was added, and color was allowed to develop for 10 min. One hundred microliters 1 M H₃PO₄ was added to stop the reaction. The plates were then read on a microplate reader at 450 nm with a 620 nm reference. In the direct binding assay, the indicated concentrations of mAbs were added to BJAB cells and bound mAb was detected.

Row | Binder | IC50 [4] [nM] | IC50 [5] [nM] | also measured
1 | Hu2.1-94 IgG (antibody, V domains shown, humanized IgG; also called h2.1-94) VH: EVQLVESGGGLVQPGGSLRLSCAASGDSITRGYWNWVRQAPGKGLEWVGYINYSGTTYYNPSLKSRFTISRDTSKNTLYLQMNSLRAEDTAVYYCATSHNTGEMDYWGQGTLVTVSS VL: DIQMTQSPSSLSASVGDRVTITCRASESVDDYGISFMHWYQQKPGKAPKLLIYRASDLESGVPSRFSGSGSGTDFTLTISSLQPEDFATYYCQQTSKDPWTFGQGTKVEIKR | – | – | Kd [1]: 0.037 nM; koff [1]: 6.6e-05 s⁻¹; kon [1]: 1.77e+06 M⁻¹ s⁻¹; IC50 [2]: 5.1 nM; Kd [3]: 0.253 nM; koff [3]: 0.000121 s⁻¹; kon [3]: 477000 M⁻¹ s⁻¹
2 | V3-46s-1 phage clone (Fab, V domains shown) VH: EVQLVESGGGLVQPGGSLRLSCAASGFTISSSSIHWVRQAPGKGLEWVAWVLPSVGFTDYADSVKGRFTISADTSKNTAYLQMNSLRAEDTAVYYCARRVCYNRLGVCAGGMDYWGQGTLVTVSS VL: DIQMTQSPSSLSASVGDRVTITCRASEDIATSVAWYQQKPGKAPKLLIFAASFLYSGVPSRFSGSGSGTDFTLTISSLQPEDFATYYCQQSQISPPTFGQGTKVEIK | 0.3 | 0.07 | –
3 | V3-46s IgG (antibody, V domains shown, also called hV3-46S; HuV3-46s-IgG) VH: EVQLVESGGGLVQPGGSLRLSCAASGFTISSSSIHWVRQAPGKGLEWVAWVLPSVGFTDYADSVKGRFTISADTSKNTAYLQMNSLRAEDTAVYYCARRVCYNRLGVCAGGMDYWGQGTLVTVSS VL: DIQMTQSPSSLSASVGDRVTITCRASQDVSTAVAWYQQKPGKAPKLLIYSASFLYSGVPSRFSGSGSGTDFTLTISSLQPEDFATYYCQQSQISPPTFGQGTKVEIKR | – | – | EC50 [6]: 1.8 nM; IC50 [2]: 1.9 nM
4 | V3-46s-10 phage clone (Fab, V domains shown) VH: EVQLVESGGGLVQPGGSLRLSCAASGFTISSSSIHWVRQAPGKGLEWVAWVLPSVGFTDYADSVKGRFTISADTSKNTAYLQMNSLRAEDTAVYYCARRVCYNRLGVCAGGMDYWGQGTLVTVSS VL: DIQMTQSPSSLSASVGDRVTITCRASEDISSAVAWYQQKPGKAPKLLIFAASYLFSGVPSRFSGSGSGTDFTLTISSLQPEDFATYYCQQSQVSPPTFGQGTKVEIK | 0.193 | 0.05 | –
5 | V3-46s-13 phage clone (Fab, V domains shown) VH: EVQLVESGGGLVQPGGSLRLSCAASGFTISSSSIHWVRQAPGKGLEWVAWVLPSVGFTDYADSVKGRFTISADTSKNTAYLQMNSLRAEDTAVYYCARRVCYNRLGVCAGGMDYWGQGTLVTVSS VL: DIQMTQSPSSLSASVGDRVTITCRASEEIATAVAWYQQKPGKAPKLLIFAASYLFSGVPSRFSGSGSGTDFTLTISSLQPEDFATYYCQQSQVAPPTFGQGTKVEIK | 0.713 | 0.08 | –
6 | V3-46s-37 phage clone (Fab, V domains shown) VH: EVQLVESGGGLVQPGGSLRLSCAASGFTISSSSIHWVRQAPGKGLEWVAWVLPSVGFTDYADSVKGRFTISADTSKNTAYLQMNSLRAEDTAVYYCARRVCYNRLGVCAGGMDYWGQGTLVTVSS VL: DIQMTQSPSSLSASVGDRVTITCRASQDVATAVAWYQQKPGKAPKLLIFAASFLYSGVPSRFSGSGSGTDFTLTISSLQPEDFATYYCQQSQISPPTFGQGTKVEIK | 0.32 | 0.131 | –
7 | V3-46s-45 phage clone (Fab, V domains shown) VH: EVQLVESGGGLVQPGGSLRLSCAASGFTISSSSIHWVRQAPGKGLEWVAWVLPSVGFTDYADSVKGRFTISADTSKNTAYLQMNSLRAEDTAVYYCARRVCYNRLGVCAGGMDYWGQGTLVTVSS VL: DIQMTQSPSSLSASVGDRVTITCRASEDVSSAVAWYQQKPGKAPKLLIFAASYLFSGVPSRFSGSGSGTDFTLTISSLQPEDFATYYCQHSQVSPPTFGQGTKVEIK | 0.37 | 0.121 | –
8 | V3-46s-34 phage clone (Fab, V domains shown) VH: EVQLVESGGGLVQPGGSLRLSCAASGFTISSSSIHWVRQAPGKGLEWVAWVLPSVGFTDYADSVKGRFTISADTSKNTAYLQMNSLRAEDTAVYYCARRVCYNRLGVCAGGMDYWGQGTLVTVSS VL: DIQMTQSPSSLSASVGDRVTITCRASEDISSAVAWYQQKPGKAPKLLIFSASFLFSGVPSRFSGSGSGTDFTLTISSLQPEDFATYYCQQSQVSPPTFGQGTKVEIK | 0.79 | 0.058 | –
9 | V3-46s-29 phage clone (Fab, V domains shown) VH: EVQLVESGGGLVQPGGSLRLSCAASGFTISSSSIHWVRQAPGKGLEWVAWVLPSVGFTDYADSVKGRFTISADTSKNTAYLQMNSLRAEDTAVYYCARRVCYNRLGVCAGGMDYWGQGTLVTVSS VL: DIQMTQSPSSLSASVGDRVTITCRASEEIATAVAWYQQKPGKAPKLLIFAASFLYSGVPSRFSGSGSGTDFTLTISSLQPEDFATYYCQQSEVSPPTFGQGTKVEIK | 0.55 | 0.08 | –
10 | V3-46s-7 phage clone (Fab, V domains shown) VH: EVQLVESGGGLVQPGGSLRLSCAASGFTISSSSIHWVRQAPGKGLEWVAWVLPSVGFTDYADSVKGRFTISADTSKNTAYLQMNSLRAEDTAVYYCARRVCYNRLGVCAGGMDYWGQGTLVTVSS VL: DIQMTQSPSSLSASVGDRVTITCRASEDISSSVAWYQQKPGKAPKLLIFSASFLFSGVPSRFSGSGSGTDFTLTISSLQPEDFATYYCQQSEVSPPTFGQGTKVEIK | 0.96 | 0.19 | –
11 | V3-46s-31 phage clone (Fab, V domains shown) VH: EVQLVESGGGLVQPGGSLRLSCAASGFTISSSSIHWVRQAPGKGLEWVAWVLPSVGFTDYADSVKGRFTISADTSKNTAYLQMNSLRAEDTAVYYCARRVCYNRLGVCAGGMDYWGQGTLVTVSS VL: DIQMTQSPSSLSASVGDRVTITCRASQDIATSVAWYQQKPGKAPKLLIFAASYLFSGVPSRFSGSGSGTDFTLTISSLQPEDFATYYCQQSQVSPPTFGQGTKVEIK | 0.342 | 0.12 | –
12 | V3-46s-33 phage clone (Fab, V domains shown) VH: EVQLVESGGGLVQPGGSLRLSCAASGFTISSSSIHWVRQAPGKGLEWVAWVLPSVGFTDYADSVKGRFTISADTSKNTAYLQMNSLRAEDTAVYYCARRVCYNRLGVCAGGMDYWGQGTLVTVSS VL: DIQMTQSPSSLSASVGDRVTITCRASEEISTAVAWYQQKPGKAPKLLIFSASYLYSGVPSRFSGSGSGTDFTLTISSLQPEDFATYYCQQSEVSPPTFGQGTKVEIK | 0.724 | 0.1 | –
13 | V3-46s-40 phage clone (Fab, V domains shown) VH: EVQLVESGGGLVQPGGSLRLSCAASGFTISSSSIHWVRQAPGKGLEWVAWVLPSVGFTDYADSVKGRFTISADTSKNTAYLQMNSLRAEDTAVYYCARRVCYNRLGVCAGGMDYWGQGTLVTVSS VL: DIQMTQSPSSLSASVGDRVTITCRASEEIATSVAWYQQKPGKAPKLLIFSASYLYSGVPSRFSGSGSGTDFTLTISSLQPEDFATYYCQQSQVSPPTFGQGTKVEIK | 0.53 | 0.164 | –
14 | V3-46s-12 phage clone (Fab, V domains shown, differs from V3-46s in CDR-H1 as well) VH: EVQLVESGGGLVQPGGSLRLSCAASGFTIASSSIHWVRQAPGKGLEWVAWVLPSVGFTDYADSVKGRFTISADTSKNTAYLQMNSLRAEDTAVYYCARRVCYNRLGVCAGGMDYWGQGTLVTVSS VL: DIQMTQSPSSLSASVGDRVTITCRASEDISSAVAWYQQKPGKAPKLLIFAASFLYSGVPSRFSGSGSGTDFTLTISSLQPEDFATYYCQQSQISPPTFGQGTKVEIK | 0.209 | 0.053 | –
15 | chimeric 9.1 IgG (antibody, V domains shown, also called Ch 9.1 IgG; ch 9.1) VH: EVKLVESGGGLVQPGGSLRLSCAISGFTVTAYYMSWVRQPPGKALEWLGFIRDKANGYTTEYNPSVKGRFTISRDNSQSIFYLQMNTLRAEDSATYYCAQVRRALDYWGQGTTVTVSA VL: DIVMSQSPSSLAVSVGEKVTMSCKSSQSLLYSSNQNNYLAWYQQKPGQSPKLLIYWASTRESGVPDRFTGSGSGTDFTLTISSVKAEDLAVYYCQQYYTYPYTFGGGT | – | – | EC50 [6]: 0.36 nM; Kd [3]: 0.17 nM
